T1: mouse NOXO1 SH3AB–E (tandem SH3 domains plus the C-terminal portion of NOXO1) (mouse, UniProt Q8VCM2 160-349)
T1 construct: mouse NOXO1, tandem SH3 domains plus the C-terminal portion; source: E. coli BL21 STAR, purified (glutathione Sepharose, PreScission cleavage, Superdex 75)
T1 sequence (looked up): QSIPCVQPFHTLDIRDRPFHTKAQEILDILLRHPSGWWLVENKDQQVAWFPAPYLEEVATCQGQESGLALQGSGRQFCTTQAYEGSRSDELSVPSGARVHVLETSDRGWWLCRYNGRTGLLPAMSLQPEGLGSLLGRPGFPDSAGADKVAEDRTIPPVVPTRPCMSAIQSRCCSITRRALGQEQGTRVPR

T2: human p22^phox cytoplasmic domain (p22^phoxC) (human)
T2 construct: human p22phox, cytoplasmic domain; source: E. coli BL21 STAR, purified (glutathione Sepharose, PreScission cleavage, Superdex 75)
T2 sequence (P13498 whole entry, looked up): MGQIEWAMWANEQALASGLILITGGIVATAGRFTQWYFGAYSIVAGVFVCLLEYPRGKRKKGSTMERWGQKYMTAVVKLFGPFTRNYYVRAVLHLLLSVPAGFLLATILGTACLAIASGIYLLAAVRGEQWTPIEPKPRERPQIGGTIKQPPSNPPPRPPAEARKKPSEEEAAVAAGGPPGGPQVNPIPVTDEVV

B1: shorter version of peptideA, which only contains the proline rich region (peptide)
peptide: TAPPPTVPTRPS
notes: also called PeptideA-short; short proline-rich motif-containing version of peptideA; source: synthetic peptide
B2: peptideA (amino acids 319–347 of human NOXO1) (peptide)
peptide: TAPPPTVPTRPSPGAIQSRCCTVTRRALE
notes: also called long version of peptideA; source: synthetic peptide
B3: mouse p22^phox cytoplasmic domain (p22^phoxC) (domain or fragment, UniProt Q61462 127-192, looked up)
chain: RGEQWTPIEPKPKERPQVGGTIKQPPTNPPPRPPAEVRKKPSEGEEEAASAGGPQVNPMPVTDEVV
notes: mouse p22phox, cytoplasmic domain; also called murine p22^phox; source: E. coli BL21 STAR, purified (glutathione Sepharose, PreScission cleavage, Superdex 75)
B4: mouse NOXA1 SH3 domain (domain or fragment, UniProt Q8CJ00 369-428, looked up)
chain: PVLYQVVAQYNYRAQRPEDLDFHQGDTVDVLCEVDEAWLEGHRDGCVGIFPKCFVVPAGA
notes: mouse NOXA1, carboxy-terminal SH3 domain; source: E. coli BL21 STAR, purified (glutathione Sepharose, PreScission cleavage, Superdex 75)
B5: human NOXA1 SH3 domain (domain or fragment, UniProt Q86UR1 399-458, looked up)
chain: PVLYQVVAQHSYSAQGPEDLGFRQGDTVDVLCEVDQAWLEGHCDGRIGIFPKCFVVPAGP
notes: human NOXA1, carboxy-terminal SH3 domain; source: E. coli BL21 STAR, purified (glutathione Sepharose, PreScission cleavage, Superdex 75)
B6: human NOXO1 SH3AB–E (tandem SH3 domains plus the C-terminal portion of NOXO1) (domain or fragment)
chain: LEAQSLRCLQPFCTQDTRDRPFQAQAQESLDVLLRHPSGWWLVENEDRQTAWFPAPYLEEAAPGQGREGGPSLGSSGPQFCASRAYESSRADELSVPAGARVRVLETSDRGWWLCRYGDRAGLLPAVLLRPEGLGALLSGTGFRGGDDPAGEARGFPEPSQATAPPPTVPTRPSPGAIQSRCCTVTRRALERRPRRQGRPRGCVDSVPHPTTEQ

Holding throughout (experiment): ITC; MicroCal VP-ITC, 18°C; 150 mM NaCl, 1 mM DTT, 50 mM HEPES pH 7.4; typically 20–40 µM protein in the cell, 200–300 µM ligand injected; single-site binding model; averaged over three to five experiments
Holding throughout (conditions): both partners purified

The experiment “human NOXA1 SH3 domain” addresses B5.
The experiment “mouse NOXA1 SH3 domain” concerns the target B4.
For experiment [1], the target named is T1, mouse NOXO1 SH3AB–E (tandem SH3 domains …).
For experiment [2] the target is unchanged. The source holds these as a separate data set.
Experiment [3] concerns the target B6.
Experiment [4] addresses T2, human p22^phox cytoplasmic domain ….

The term Kd denotes a measure of binding affinity in units of concentration. B1: the Kd with human NOXA1 SH3 domain was more than 70 µM.
B2: in the experiment with human NOXA1 SH3 domain, the equilibrium dissociation constant (Kd) stood at 5.8 µM and the dH was -12.6 ± 0.6 kcal/mol. In the experiment with mouse NOXA1 SH3 domain, this molecule gave a Kd of 5.9 µM and a dH of -7.6 ± 0.3 kcal/mol.
With B3, in experiment [1], the Kd stood at 780 nM and the dH was -7.1 ± 0.05 kcal/mol.
Regarding B4, in experiment [2], the Kd amounted to 2200 nM and the dH was -10.1 ± 0.8 kcal/mol.
B5: the dH in experiment [3] is -8.6 ± 0.7 kcal/mol.
As for B6, the results for the Kd (in experiment [4]; with human NOXA1 SH3 domain) were 17.5 µM and 7.2 µM, respectively.

Source of the values: article PMC2864300, “Regulation of NOXO1 Activity through Reversible Interactions with p22^phox and NOXA1” (PLoS ONE, 2010).
